Assay results published in publication doi:10.1101/400432, “The deadly touch: protein denaturation at the water-air interface and how to prevent it” (bioRxiv, 2018).

Assays:
[1] = target: the molecule itself; assay: cryo-EM structure; single-particle cryo-EM of purified FAS complex (0.2 mg/ml) on Quantifoil R0.6/1 grids coated with graphene hydrophilized with 1-pyrCA; about 28,000 particles; maps at 4.8 Å (C1) and 4.0 Å (D3)
[2] = target: T1, fatty acid synthase subunit encoded by FAS1, twinStrep-II tagged (Saccharomyces cerevisiae) (S. cerevisiae, UniProt P07149 1-2051); assay: as above; settings: both partners purified
T1 construct: Fatty acid synthase subunit encoded by the FAS1 gene, S. cerevisiae; expressed from plasmid pMF639 (pRS315_FAS1-twinStrep-II); also called strep-tagged FAS; beta (beta-domes)
T1 sequence (P07149 whole entry): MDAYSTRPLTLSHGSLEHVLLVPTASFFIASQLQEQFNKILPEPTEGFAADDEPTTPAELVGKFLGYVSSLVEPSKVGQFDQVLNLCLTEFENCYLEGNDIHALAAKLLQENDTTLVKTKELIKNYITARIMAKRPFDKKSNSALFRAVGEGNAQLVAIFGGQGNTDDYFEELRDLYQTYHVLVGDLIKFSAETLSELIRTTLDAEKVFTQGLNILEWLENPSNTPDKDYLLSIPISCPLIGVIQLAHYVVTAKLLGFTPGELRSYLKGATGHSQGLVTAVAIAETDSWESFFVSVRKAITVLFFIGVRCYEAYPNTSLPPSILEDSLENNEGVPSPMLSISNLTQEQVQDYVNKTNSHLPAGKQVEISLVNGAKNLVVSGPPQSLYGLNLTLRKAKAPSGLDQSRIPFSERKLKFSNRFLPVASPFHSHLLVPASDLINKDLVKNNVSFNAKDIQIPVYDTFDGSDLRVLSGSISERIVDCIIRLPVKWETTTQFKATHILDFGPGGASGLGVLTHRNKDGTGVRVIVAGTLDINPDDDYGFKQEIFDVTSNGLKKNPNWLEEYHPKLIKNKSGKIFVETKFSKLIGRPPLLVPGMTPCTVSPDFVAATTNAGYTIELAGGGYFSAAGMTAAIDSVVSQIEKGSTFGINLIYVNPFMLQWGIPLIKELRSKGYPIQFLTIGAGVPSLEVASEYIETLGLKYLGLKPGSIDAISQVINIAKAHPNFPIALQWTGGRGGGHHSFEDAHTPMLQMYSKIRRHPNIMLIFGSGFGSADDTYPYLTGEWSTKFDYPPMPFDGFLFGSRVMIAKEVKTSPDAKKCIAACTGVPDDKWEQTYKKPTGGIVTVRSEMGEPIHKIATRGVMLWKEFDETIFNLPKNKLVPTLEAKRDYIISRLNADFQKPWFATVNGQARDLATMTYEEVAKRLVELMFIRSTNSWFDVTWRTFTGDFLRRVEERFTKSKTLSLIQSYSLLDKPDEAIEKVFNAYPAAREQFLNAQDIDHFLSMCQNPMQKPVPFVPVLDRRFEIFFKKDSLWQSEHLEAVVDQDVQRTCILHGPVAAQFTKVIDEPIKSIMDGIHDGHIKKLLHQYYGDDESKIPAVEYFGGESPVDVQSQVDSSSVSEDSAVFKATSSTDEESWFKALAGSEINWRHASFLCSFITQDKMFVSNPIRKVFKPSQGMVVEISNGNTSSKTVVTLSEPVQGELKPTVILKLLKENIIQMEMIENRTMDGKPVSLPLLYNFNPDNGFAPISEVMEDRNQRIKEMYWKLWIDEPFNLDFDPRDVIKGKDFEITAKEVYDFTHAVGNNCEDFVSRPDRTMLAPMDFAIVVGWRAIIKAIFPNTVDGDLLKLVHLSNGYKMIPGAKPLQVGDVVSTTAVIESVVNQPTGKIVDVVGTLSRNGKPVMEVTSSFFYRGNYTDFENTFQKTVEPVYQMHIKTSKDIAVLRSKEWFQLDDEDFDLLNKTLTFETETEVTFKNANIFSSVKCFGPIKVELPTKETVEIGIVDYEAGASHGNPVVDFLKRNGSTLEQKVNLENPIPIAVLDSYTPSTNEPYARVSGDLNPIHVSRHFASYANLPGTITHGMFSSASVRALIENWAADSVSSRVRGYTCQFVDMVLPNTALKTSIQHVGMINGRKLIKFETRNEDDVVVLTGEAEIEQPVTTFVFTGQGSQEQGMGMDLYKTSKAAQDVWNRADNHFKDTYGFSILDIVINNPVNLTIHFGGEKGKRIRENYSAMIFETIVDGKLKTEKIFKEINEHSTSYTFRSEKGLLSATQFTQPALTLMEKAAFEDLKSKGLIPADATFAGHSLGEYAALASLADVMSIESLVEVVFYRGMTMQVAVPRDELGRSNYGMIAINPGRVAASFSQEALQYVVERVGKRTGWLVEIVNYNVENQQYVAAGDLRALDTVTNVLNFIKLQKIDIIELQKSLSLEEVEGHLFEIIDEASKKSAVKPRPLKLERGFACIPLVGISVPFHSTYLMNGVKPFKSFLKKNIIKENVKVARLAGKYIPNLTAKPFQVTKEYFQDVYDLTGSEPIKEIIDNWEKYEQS

- binding result [2]: binds
B1: fatty acid synthase subunit encoded by FAS2 (Saccharomyces cerevisiae) (enzyme, S. cerevisiae, UniProt P19097 1-1887, looked up)
chain: MKPEVEQELAHILLTELLAYQFASPVRWIETQDVFLKDFNTERVVEIGPSPTLAGMAQRTLKNKYESYDAALSLHREILCYSKDAKEIYYTPDPSELAAKEEPAKEEAPAPTPAASAPAPAAAAPAPVAAAAPAAAAAEIADEPVKASLLLHVLVAHKLKKSLDSIPMSKTIKDLVGGKSTVQNEILGDLGKEFGTTPEKPEETPLEELAETFQDTFSGALGKQSSSLLSRLISSKMPGGFTITVARKYLQTRWGLPSGRQDGVLLVALSNEPAARLGSEADAKAFLDSMAQKYASIVGVDLSSAASASGAAGAGAAAGAAMIDAGALEEITKDHKVLARQQLQVLARYLKMDLDNGERKFLKEKDTVAELQAQLDYLNAELGEFFVNGVATSFSRKKARTFDSSWNWAKQSLLSLYFEIIHGVLKNVDREVVSEAINIMNRSNDALIKFMEYHISNTDETKGENYQLVKTLGEQLIENCKQVLDVDPVYKDVAKPTGPKTAIDKNGNITYSEEPREKVRKLSQYVQEMALGGPITKESQPTIEEDLTRVYKAISAQADKQDISSSTRVEFEKLYSDLMKFLESSKEIDPSQTTQLAGMDVEDALDKDSTKEVASLPNKSTISKTVSSTIPRETIPFLHLRKKTPAGDWKYDRQLSSLFLDGLEKAAFNGVTFKDKYVLITGAGKGSIGAEVLQGLLQGGAKVVVTTSRFSKQVTDYYQSIYAKYGAKGSTLIVVPFNQGSKQDVEALIEFIYDTEKNGGLGWDLDAIIPFAAIPEQGIELEHIDSKSEFAHRIMLTNILRMMGCVKKQKSARGIETRPAQVILPMSPNHGTFGGDGMYSESKLSLETLFNRWHSESWANQLTVCGAIIGWTRGTGLMSANNIIAEGIEKMGVRTFSQKEMAFNLLGLLTPEVVELCQKSPVMADLNGGLQFVPELKEFTAKLRKELVETSEVRKAVSIETALEHKVVNGNSADAAYAQVEIQPRANIQLDFPELKPYKQVKQIAPAELEGLLDLERVIVVTGFAEVGPWGSARTRWEMEAFGEFSLEGCVEMAWIMGFISYHNGNLKGRPYTGWVDSKTKEPVDDKDVKAKYETSILEHSGIRLIEPELFNGYNPEKKEMIQEVIVEEDLEPFEASKETAEQFKHQHGDKVDIFEIPETGEYSVKLLKGATLYIPKALRFDRLVAGQIPTGWNAKTYGISDDIISQVDPITLFVLVSVVEAFIASGITDPYEMYKYVHVSEVGNCSGSGMGGVSALRGMFKDRFKDEPVQNDILQESFINTMSAWVNMLLISSSGPIKTPVGACATSVESVDIGVETILSGKARICIVGGYDDFQEEGSFEFGNMKATSNTLEEFEHGRTPAEMSRPATTTRNGFMEAQGAGIQIIMQADLALKMGVPIYGIVAMAATATDKIGRSVPAPGKGILTTAREHHSSVKYASPNLNMKYRKRQLVTREAQIKDWVENELEALKLEAEEIPSEDQNEFLLERTREIHNEAESQLRAAQQQWGNDFYKRDPRIAPLRGALATYGLTIDDLGVASFHGTSTKANDKNESATINEMMKHLGRSEGNPVIGVFQKFLTGHPKGAAGAWMMNGALQILNSGIIPGNRNADNVDKILEQFEYVLYPSKTLKTDGVRAVSITSFGFGQKGGQAIVVHPDYLYGAITEDRYNEYVAKVSAREKSAYKFFHNGMIYNKLFVSKEHAPYTDELEEDVYLDPLARVSKDKKSGSLTFNSKNIQSKDSYINANTIETAKMIENMTKEKVSNGGVGVDVELITSINVENDTFIERNFTPQEIEYCSAQPSVQSSFAGTWSAKEAVFKSLGVKSLGGGAALKDIEIVRVNKNAPAVELHGNAKKAAEEAGVTDVKVSISHDDLQAVAVAVSTKK
notes: Fatty acid synthase subunit encoded by the FAS2 gene, S. cerevisiae; expressed from plasmid pMF319d (pRS313_FAS2); also called alpha (alpha wheel)
- binding result [1]: binds
